Experiments:
sLTβR [1] = target: T1, sLTβR (UniProt P36941 31-227, limits assumed); test: SPR (Biacore 3000)
T1 construct: Used in solution in ITC and as the analyte in SPR; also called soluble lymphotoxin beta receptor; antigen

sLTβR [2] = target: T1, sLTβR; test: SPR (Biacore 3000); with VH44/VL100 disulfide (second 'VH-S16E, VL-S46L' row, below the disulfide wild-type)
sLTβR [3] = target: T1, sLTβR; test: SPR (Biacore 3000), scFv captured on anti-PENTA-His, sLTβR as analyte, 1:1 Langmuir fit
Procedure: (§1) All experiments were performed in HBS-EP buffer, pH 7.4. […] 0.1 μM solutions of test scFvs were injected over the chip at a flow rate of 5 μl/min for 10 minutes and captured onto the surface via the immobilized PENTA-His antibody. To investigate binding between sLTβR and captured scFv, a concentration series of sLTβR (1, 2, 5, 10, 25, 50, 100, and 200 nM) was double injected at a flow rate of 30 μl/min onto the scFv-coated surface. Background was subtracted from test sample sensorgrams using sensorgram data from a flow cell containing buffer only and sensorgram data from the PENTA-His surface where scFv was injected followed by an injection of buffer instead of sLTβR. The curves were analyzed using the BiaEval 3.0 manufacturer's software. KD values were calculated by fitting kinetic association and dissociation curves to a 1:1 Langmuir binding model. Chip surfaces were regenerated by two consecutive 10 μL injections of 0.1 M glycine, pH 3.0.

LTβR-Ig [4] = target: T2, LTβR-Ig (UniProt P36941 31-227, limits assumed); test: thermal challenge assay, remaining binding to plate-coated LTβR-Ig read by DELFIA; unit taken from the x axis
T2 construct: extracellular domain; also called LTβR Ig receptor; recombinantly produced LTβR receptor; not shown: human Fc region

LTβR-Ig [5] = target: T2, LTβR-Ig; test: thermal challenge assay; T50 = temperature at which 50% of the molecules keep binding to plate-coated LTβR-Ig (DELFIA); unit taken from the x axis
Procedure: An aliquot of the supernatant was reserved for the reference DELFIA. […] For screens requiring multiple challenge temperatures (or for temperatures greater than 75° C.) the supernatants were transferred to 96-well PCR plates (Applied Biosystems, Foster City, Calif., Cat. # N801-560) and incubated for 90 minutes at the desired temperature.
After thermal challenge, the samples were centrifuged at 2,000 RPM to remove aggregated material. Soluble BHA10 scFv samples remaining in the treated, cleared supernatant were assayed for binding to cognate LTβR Ig antigen by DELFIA assay. […] Plates were coated overnight at 4° C., and blocked with DELFIA assay buffer (DAB, 10 mM Tris HCl, 150 mM NaCl, 20 μM EDTA, 0.5% BSA, 0.02% Tween 20, 0.01% NaN₃, pH 7.4) for one hour with shaking at room temperature. Plates were washed 3 times with DAB without BSA (Wash buffer), and test samples diluted in DAB were added to the plates in a final volume of 100 μl. The plates were incubated for one hour with shaking at room temperature, and then washed 3 times with Wash buffer to remove unbound and functionally inactivated scFv molecules. Bound BHA10 scFv was detected by addition of 100 μl per well of DAB containing 40 ng/ml of Eu-labeled anti-His₆ antibody (Perkin Elmer, Boston, Mass., Cat. # AD0109) and incubated at room temperature with shaking for one hour.

sLTβR [6] = target: T1, sLTβR; test: SPR (Biacore 3000), scFv captured on anti-PENTA-His, sLTβR 1-200 nM as analyte, 1:1 Langmuir fit
Procedure: as §1

T2 sequence (P36941 31-227 limits assumed): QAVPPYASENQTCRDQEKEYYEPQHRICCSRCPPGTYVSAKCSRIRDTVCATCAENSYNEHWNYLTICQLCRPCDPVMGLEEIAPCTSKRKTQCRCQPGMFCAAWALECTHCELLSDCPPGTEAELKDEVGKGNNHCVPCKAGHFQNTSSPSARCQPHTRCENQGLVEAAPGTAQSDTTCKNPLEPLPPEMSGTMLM
T1 sequence (P36941 31-227 limits assumed): as above

| Binder | Kd (sLTβR [1]) [nM] | T50 (LTβR-Ig [5]) [°C] | also measured |
| --- | --- | --- | --- |
| BHA10 scFv VH-P101D, (G4S)4 linker (scFv, name in Kabat numbering, Built on the (G4S)4 scFv; The position is a Kabat number of VH; also called 077 VH-P101D; pIEH058) scFv: QVQLVQSGAEVKKPGSSVKVSCKASGYTFTTYYLHWVRQAPGQGLEWMGWIYPGNVHAQYNEKFKGRVTITADKSTSTAYMELSSLRSEDTAVYYCARSWEGFDYWGQGTTVTVSSGGGGSGGGGSGGGGSGGGGSDIQMTQSPSSLSASVGDRVTITCKASQNVGINVAWYQQKPGKAPKSLISSASYRYSGVPSRFSGSGSGTDFTLTISSLQPEDFATYFCQQYDTYPFTFGQGTKVEIK | 5.2 | – | – |
| BHA10 scFv VH44/VL100 disulfide, VH-S16E, VL-S46L, (G4S)4 linker (scFv, name in Kabat numbering, It is read here as the disulfide version; also called 080 VL-S46L + VH-S16E + ss) scFv: QVQLVQSGAEVKKPGESVKVSCKASGYTFTTYYLHWVRQAPGQCLEWMGWIYPGNVHAQYNEKFKGRVTITADKSTSTAYMELSSLRSEDTAVYYCARSWEGFPYWGQGTTVTVSSGGGGSGGGGSGGGGSGGGGSDIQMTQSPSSLSASVGDRVTITCKASQNVGINVAWYQQKPGKAPKLLISSASYRYSGVPSRFSGSGSGTDFTLTISSLQPEDFATYFCQQYDTYPFTFGCGTKVEIK | – | – | Kd (sLTβR [2]): 4 nM |
| BHA10 scFv VH-S16Q, VL-S46L, (G4S)4 linker, no disulfide (scFv, name in Kabat numbering, Positions are Kabat numbers of the VH and VL domains; also called 078 VL-S46L + VH-S16Q; pIEH078) scFv: QVQLVQSGAEVKKPGQSVKVSCKASGYTFTTYYLHWVRQAPGQGLEWMGWIYPGNVHAQYNEKFKGRVTITADKSTSTAYMELSSLRSEDTAVYYCARSWEGFPYWGQGTTVTVSSGGGGSGGGGSGGGGSGGGGSDIQMTQSPSSLSASVGDRVTITCKASQNVGINVAWYQQKPGKAPKLLISSASYRYSGVPSRFSGSGSGTDFTLTISSLQPEDFATYFCQQYDTYPFTFGQGTKVEIK | 4.2 | – | – |
| conventional BHA10 scFv, VH-(Gly4Ser)3-VL (scFv, also called Wild-type, (G4S)*3 linker; WT) scFv: QVQLVQSGAEVKKPGSSVKVSCKASGYTFTTYYLHWVRQAPGQGLEWMGWIYPGNVHAQYNEKFKGRVTITADKSTSTAYMELSSLRSEDTAVYYCARSWEGFPYWGQGTTVTVSSGGGGSGGGGSGGGGSDIQMTQSPSSLSASVGDRVTITCKASQNVGINVAWYQQKPGKAPKSLISSASYRYSGVPSRFSGSGSGTDFTLTISSLQPEDFATYFCQQYDTYPFTFGQGTKVEIK | 2.7 | 49 | Kd (sLTβR [6]): 3.7 nM |
| BHA10 VH44/VL100 scFv (scFv, disulfide bond between VH44 Cys and VL100 Cys (Kabat), Expressed in E. coli; also called IEH006 (GS3 + SS); pIEH006) scFv, VH-(Gly4Ser)3-VL: QVQLVQSGAEVKKPGSSVKVSCKASGYTFTTYYLHWVRQAPGQCLEWMGWIYPGNVHAQYNEKFKGRVTITADKSTSTAYMELSSLRSEDTAVYYCARSWEGFPYWGQGTTVTVSSGGGGSGGGGSGGGGSDIQMTQSPSSLSASVGDRVTITCKASQNVGINVAWYQQKPGKAPKSLISSASYRYSGVPSRFSGSGSGTDFTLTISSLQPEDFATYFCQQYDTYPFTFGCGTKVEIK | – | 59 | midpoint temperature of the thermal challenge curve (T50) (LTβR-Ig [4]): 61.5 °C |

The remaining binders from weak to strong by Kd (sLTβR [1]), led by results:

| Kd (sLTβR [1]) [nM] | T50 (LTβR-Ig [5]) [°C] | Binder | also measured |
| --- | --- | --- | --- |
| 3.8 | – | BHA10 scFv VH-S16E, VH-V55G, VL-S46L, (G4S)4 linker (scFv, name in Kabat numbering, Positions are Kabat numbers of the VH and VL domains; also called 087 VL-S46L + VH-S16E, V55G; pIEH087) scFv: QVQLVQSGAEVKKPGESVKVSCKASGYTFTTYYLHWVRQAPGQGLEWMGWIYPGNGHAQYNEKFKGRVTITADKSTSTAYMELSSLRSEDTAVYYCARSWEGFPYWGQGTTVTVSSGGGGSGGGGSGGGGSGGGGSDIQMTQSPSSLSASVGDRVTITCKASQNVGINVAWYQQKPGKAPKLLISSASYRYSGVPSRFSGSGSGTDFTLTISSLQPEDFATYFCQQYDTYPFTFGQGTKVEIK | – |
| 3.4 | – | BHA10 scFv VH-S16E, VL-S46L, (G4S)4 linker, no disulfide (scFv, name in Kabat numbering, Positions are Kabat numbers of the VH and VL domains, not of the scFv entry; also called 076 VL-S46L + VH-S16E; pIEH076) scFv: QVQLVQSGAEVKKPGESVKVSCKASGYTFTTYYLHWVRQAPGQGLEWMGWIYPGNVHAQYNEKFKGRVTITADKSTSTAYMELSSLRSEDTAVYYCARSWEGFPYWGQGTTVTVSSGGGGSGGGGSGGGGSGGGGSDIQMTQSPSSLSASVGDRVTITCKASQNVGINVAWYQQKPGKAPKLLISSASYRYSGVPSRFSGSGSGTDFTLTISSLQPEDFATYFCQQYDTYPFTFGQGTKVEIK | – |
| 3.3 | 62 | BHA10 VH44:VL100/(Gly4Ser)4 scFv (scFv, Cys at Kabat VH44 and VL100 form a disulfide; also called Wild-type, (G4S)*4 linker w/ VH44/VL100 disulfide; 009 (ss)) scFv: QVQLVQSGAEVKKPGSSVKVSCKASGYTFTTYYLHWVRQAPGQCLEWMGWIYPGNVHAQYNEKFKGRVTITADKSTSTAYMELSSLRSEDTAVYYCARSWEGFPYWGQGTTVTVSSGGGGSGGGGSGGGGSGGGGSDIQMTQSPSSLSASVGDRVTITCKASQNVGINVAWYQQKPGKAPKSLISSASYRYSGVPSRFSGSGSGTDFTLTISSLQPEDFATYFCQQYDTYPFTFGCGTKVEIK | Kd (sLTβR [3]): 4.3 nM; midpoint temperature of the thermal challenge curve (T50) (LTβR-Ig [4]): 63.3 °C |
| 2 | – | BHA10 scFv VH-S16E, (G4S)4 linker (scFv, name in Kabat numbering, Positions are Kabat numbers of the VH domain; also called 074 VH-S16E; pIEH032) scFv: QVQLVQSGAEVKKPGESVKVSCKASGYTFTTYYLHWVRQAPGQGLEWMGWIYPGNVHAQYNEKFKGRVTITADKSTSTAYMELSSLRSEDTAVYYCARSWEGFPYWGQGTTVTVSSGGGGSGGGGSGGGGSGGGGSDIQMTQSPSSLSASVGDRVTITCKASQNVGINVAWYQQKPGKAPKSLISSASYRYSGVPSRFSGSGSGTDFTLTISSLQPEDFATYFCQQYDTYPFTFGQGTKVEIK | – |
